From publication PMC7060258, “A new multigene HCIQ subfamily from the sea anemone Heteractis crispa encodes Kunitz-peptides exhibiting neuroprotective activity against 6-hydroxydopamine” (Scientific Reports, 2020) come the findings set out here.

No end group written: not given here.

B2: recombinant HCIQ2c1 Kunitz-type peptide from Heteractis crispa (peptide, UniProt A0A6B7FBD3 28-85, looked up)
chain: IQGNICSEPKKVGRCRGSFPRFYFDSETGKCTPFIYGGCGGNGNNFETLHACRAICRA
notes: HCIQ2c1, Kunitz-type peptide of the sea anemone Heteractis crispa; mature peptide of 58 aa (precursor 85 aa: signal peptide 22 aa, propeptide 5 aa ending in Lys-Arg at 26-27, mature peptide 58 aa); begins with Ile-Gln; measured mass 6330 Da; numbers count on: the mature protein; also called rHCIQ2c1; source: E. coli BL21 (DE3), thioredoxin fusion, purified (Ni-NTA, CNBr cleavage, RP-HPLC)

What all share (settings): both partners purified
For test [1], the target named is T1, human neutrophil elastase (human, UniProt P08246 30-267).
T1 sequence (looked up): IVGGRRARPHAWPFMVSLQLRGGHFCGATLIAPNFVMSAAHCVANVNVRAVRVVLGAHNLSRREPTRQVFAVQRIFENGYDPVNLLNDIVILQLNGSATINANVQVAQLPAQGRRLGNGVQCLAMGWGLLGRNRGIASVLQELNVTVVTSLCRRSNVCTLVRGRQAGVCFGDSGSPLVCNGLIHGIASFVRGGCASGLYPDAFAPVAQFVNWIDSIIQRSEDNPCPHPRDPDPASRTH
Nature of the test: SPR; Biacore 3000; peptides covalently immobilised on a CM4 chip (970 RU rHCIQ2c1, 460 RU rHCIQ4c7); proteinases 1 nM to 5 μM flowed over; 25 °C; HBS: 0.15 M NaCl, 0.01 M HEPES, pH 7.4. A general note: In SPR one partner is held on a chip, and binding of the other changes the refractive index at the surface.

Test [2] deals with trypsin. Nature of the test: enzyme inhibition (Dixon method); trypsin 208 nM, substrate BAPNA 0.6 and 1.2 mM, peptide 0–26.6 µM (rHCIQ2c1) or 0–24 µM (rHCIQ4c7); three parallel experiments.
Test [3] addresses B2. As to the kind of experiment: SPR; Biacore 3000; peptides covalently immobilised on a CM4 chip (970 RU rHCIQ2c1, 460 RU rHCIQ4c7); proteinases 1 nM to 5 μM flowed over; 25 °C; HBS: 0.15 M NaCl, 0.01 M HEPES, pH 7.4.

Sequence of trypsin (P00760 24-246): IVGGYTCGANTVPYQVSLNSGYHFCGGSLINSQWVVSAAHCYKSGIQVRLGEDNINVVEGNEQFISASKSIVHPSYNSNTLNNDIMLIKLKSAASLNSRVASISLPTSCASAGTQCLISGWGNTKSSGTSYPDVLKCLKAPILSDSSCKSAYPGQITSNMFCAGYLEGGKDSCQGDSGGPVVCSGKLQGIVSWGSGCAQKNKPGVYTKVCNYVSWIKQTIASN

B1: recombinant HCIQ4c7 Kunitz-type peptide from Heteractis crispa (peptide)
chain: IQGNICSEPKKVGRCRESFPRFYFDSETGKCTPFIYGGCGGNGNNFETLHACRAICRA
modifications: not fully specified; cysteine pairing not given here
Broadly, the Kd is the equilibrium constant for the complex coming apart. The koff is the rate constant with which the complex falls apart. By kon is commonly meant the rate constant with which the complex forms. For orientation: Ki means the equilibrium dissociation constant of an inhibitor or competing ligand from its target. On to B1, for which, in test [1], the Ka stood at 1.05e+06 M⁻¹, binding was characterised by a dissociation constant (Kd) of 955 nM, the koff turned out to be 0.0114 s⁻¹ and the kon worked out at 11900 M⁻¹ s⁻¹. Besides, the affinity in test [2] corresponds to a Ki of 190 nM.

As to B2, in test [1], the Ka turned out to be 7.9e+06 M⁻¹, binding was put at a Kd of 127 nM, the koff turned out to be 0.00861 s⁻¹ and the association rate constant (kon) is 68000 M⁻¹ s⁻¹. In test [2], this molecule showed an inhibition constant Ki of 52 nM.

B3: pancreatic kallikrein (enzyme)
chain: not shown
modifications: Species and supplier are not given; porcine pancreatic kallikrein is assumed as the usual commercial enzyme. Limits are the active chain of the candidate entry. The natural enzyme is glycosylated …
Turning to B3, in test [3], the Ka came out at 2.04e+06 M⁻¹, the equilibrium dissociation constant (Kd) was found to be 490 nM, the off-rate (koff) was 0.00379 s⁻¹ and the on-rate (kon) came to 49400 M⁻¹ s⁻¹.
